Assays:
[1] = target: T1, Ac-PYY(PEG3-Dig) (N-terminal acetyl; Lys 2 side chain carries PEG3-digoxigenin-3-carboxymethyl; Pqa at position 3; N-methyl-Arg at position 14; C-terminal amide); test: size exclusion chromatography and SEC-MALLS; binding through digoxigenin
T1 construct: also called DIG-PYY; Digoxigenin-PYY(3-36) conjugate
T1 peptide: IKXRHYLNWVTRQXY

[2] = target: PYY_helicar (helicar motif engineered PYY); test: SEC-MALLS
[3] = target: PYY_helicar (helicar motif engineered PYY); test: column binding [Kd]; method not stated

Sequence of PYY_helicar (helicar motif engineered PYY) (peptide, as listed by the source, change not shown): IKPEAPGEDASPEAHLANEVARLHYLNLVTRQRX

B1: murine anti-digoxigenin antibody (hybridoma-derived) (antibody, mouse IgG1, V domains shown)
VH: EVQLVESGGGLVKPGGSLKLSCAVSGFTFSDYAMSWIRQTPENRLEWVASINIGATYAYYPDSVKGRFTISRDNAKNTLFLQMSSLGSEDTAMYYCARPGSPYEYDKAYYSMAYWGPGTSVTVSS
VL: DVQMTQSTSSLSASLGDRVTISCRASQDIKNYLNWYQQKPGGTVKLLIYYSSTLLSGVPSRFSGRGSGTDFSLTITNLEREDIATYFCQQSITLPPTFGGGTKLEIK
- binding result [1]: binds

B2: anti-helicar motif amino acid sequence antibody (0019) (antibody, V domains shown)
V domain 1: QAVVTQEPSLTVSPGGTVTLTCGSSTGAVTTSNYASWVQQKPGQAFTGLIGGTNNRAPWTPARFSGSLLGGKAALTLSGAQPEDEAEYYCALWYSNHWVFGGGTKLTVL
V domain 2: DAVVTQESALTTSPGETVTLTCRSSTGAVTTSNYASWVQEKPDHLFTGLIGGTNNRAPGVPARFSGSLIGDKAALTITGAQTEDEAIYFCALWYSNHWVFGGGTKLTVL
- stoichiometry of the complex (peptides on one bivalent antibody) (peptides per antibody) [2]: 1.6
- Kd [3]: 12 nM

Source: patent publication US20160324984A1 (published 2016)
